# Key:
# [1] = target: His6-tagged sCD4 (D1-D2); assay: BLI
# [2] = target: LT5.J4b12C SOSIP.664 trimeric Env (HIV-1 B/C recombinant, soluble gp140) (HIV-1); assay: negative-stain EM
substance,measurement,setting,value
"LT5.J4b12C SOSIP.664 trimeric Env (HIV-1 B/C recombinant, soluble gp140) (complex)",fold lower affinity than BG505 SOSIP.664,[1],3 fold
same,stoichiometry N,[2],3

# From paper PMC5612115
